Molecular target: SARS-CoV-2 spike receptor binding domain, wild type (SARS-CoV-2) (UniProt P0DTC2)
Test: ITC

## CC12.1 single chain variable fragment (scFv)
  Kd: 28 nM
  dH: 4.8 kcal/mol
  stoichiometry N: 1

Reference: article doi:10.1101/2021.05.23.445348
